Results as given in doi:10.1101/2021.04.29.441928.

Experiments:
Assay in all cases: co-IP
CD4 R426A (mouse) = CD4 R426A (mouse) (UniProt P06332)
CD4 K452A (mouse) = CD4 K452A (mouse) (UniProt P06332)
CD4 R449A (mouse) = CD4 R449A (mouse) (UniProt P06332)
CD4 WT (mouse) = CD4 WT (mouse) (UniProt P06332)
CD4 Dbl (mouse) = CD4 Dbl (mouse) (UniProt P06332)

Sequence of Lck (P06240 whole entry): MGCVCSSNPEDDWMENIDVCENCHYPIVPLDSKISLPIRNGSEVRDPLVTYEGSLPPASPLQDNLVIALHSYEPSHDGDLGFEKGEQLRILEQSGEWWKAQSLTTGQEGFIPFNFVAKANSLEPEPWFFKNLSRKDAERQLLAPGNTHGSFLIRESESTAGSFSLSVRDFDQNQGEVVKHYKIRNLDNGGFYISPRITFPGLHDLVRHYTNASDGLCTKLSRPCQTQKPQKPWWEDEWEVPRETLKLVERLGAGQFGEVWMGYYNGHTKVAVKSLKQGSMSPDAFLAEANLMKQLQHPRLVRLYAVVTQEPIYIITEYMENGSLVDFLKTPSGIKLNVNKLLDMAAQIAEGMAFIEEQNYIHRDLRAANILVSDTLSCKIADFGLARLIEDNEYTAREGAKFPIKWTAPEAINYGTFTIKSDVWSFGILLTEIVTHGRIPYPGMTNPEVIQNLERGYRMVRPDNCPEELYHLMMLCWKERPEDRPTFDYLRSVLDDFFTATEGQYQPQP

- total AUC of the raw Lck signal co-IP'd with CD4 (CD4 R426A (mouse)): 2920
- total AUC of the raw Lck signal co-IP'd with CD4 (CD4 K452A (mouse)): 2380
- total AUC of the raw Lck signal co-IP'd with CD4 (CD4 R449A (mouse)): 2640
- total AUC of the raw Lck signal co-IP'd with CD4 (CD4 WT (mouse)): 2630
- total AUC of the raw Lck signal co-IP'd with CD4 (CD4 Dbl (mouse)): 2160
Substance: Lck (from UniProt P06240 1-509) (enzyme)
